# Data published in patent publication US20250352589A1, “OXYTOCIN-MIMETIC COMPOSITIONS AND USES THEREOF” (INSTITUT NATIONAL DE LA SANTÉ ET DE LA RECHERCHE MÉDICALE, priority 2021, published 2025).
# Like-named read-outs stand apart in the source and are kept apart here.
# T1: human OT-R (Homo sapiens, UniProt P30559)
# T1 construct: expressed in transfected cells; host or cells: HEK cells
# T1 sequence (P30559 1-389): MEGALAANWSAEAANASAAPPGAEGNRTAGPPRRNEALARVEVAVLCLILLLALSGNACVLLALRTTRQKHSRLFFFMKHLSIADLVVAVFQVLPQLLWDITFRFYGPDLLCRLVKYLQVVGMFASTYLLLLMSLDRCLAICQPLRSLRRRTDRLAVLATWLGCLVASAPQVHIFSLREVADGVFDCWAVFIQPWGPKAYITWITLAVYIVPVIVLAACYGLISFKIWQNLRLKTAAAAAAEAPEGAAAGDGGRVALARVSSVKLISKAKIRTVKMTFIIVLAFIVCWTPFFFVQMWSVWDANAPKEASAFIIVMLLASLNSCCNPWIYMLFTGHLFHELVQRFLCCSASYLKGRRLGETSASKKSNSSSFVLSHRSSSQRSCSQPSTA
# B1: 2,5-didehydrogluconate reductase (protein, listed as Lactobacillus camelliae)
# chain: MAEISKMSDTYTLSNGVKIPIVGFGTWQTPDGDVAKHSVEVAIKDGYRHIDTAAMYRNEDSVGEGIKAGLAAAGLKRDDLFVTTKLNNNAHSFDLVQKAIDESLTKLGLDHVDLYLIHWPNPVSFRDSYPDSLKETWRGMEQVYKDGKARAIGISNFRQAHLDVIKADATVEPMVNQIFLNPSDLQPAVTKMNAENNILSEAYSPLGTGKLLGNEELAKVAAKYGKGVAQVLLRWSLQHGFLPLAKSVHDARIKENTELFDFTLSDEDMKTLDGMRGVAGLATDPDTTNF
# modifications: 2,5-didehydrogluconate reductase
# notes: protein expressed by Lactobacillus camelliae
# B2: Triosephosphate isomerase (protein, listed as Lactobacillus camelliae)
# chain: MAGNWKMNKNPEETQAFLDGVKGKLPESSKVQTVIAAPAIDLTTLVAGAKGTPLQTAAENCYFEDAGAFTGETSPKALKDMGLDYVVIGHSERRGYFHETDQDINKKAKAILKNGLLPIICCGESLDQREAGQTNDWVASQVEAALAGISAADVKNSVIAYEPIWAIGTGKTASADQAQEVVAHIRSIVAKLYDAETADAVRILYGGSVKPANVKELMAKPDIDGGLVGGASMDPESFVALANYQD
# modifications: Triosephosphate isomerase
# notes: as for B1
# B3: Fructose tagatose bisphosphate aldolase (protein, listed as Lactobacillus camelliae)
# chain: MFQAARKGHYAIGAFNTNNLEWTRALLKGAQELNVPILIQTSMGAAKYMGGYKLCKALIELEAESMNITVPVVIHLDHGNFEAAKEAIAAGYNSVMFDGHDLPFDENLEKTKEIVKLAHAKGISVEAEVGSIGGEEDGVIGEGELASVEEAKTLAATGIDFMAAGIGNIHGKYPSNWKGLHFDRLQEIADAVDLPLVLHGGSGIPQDQVEKAISMGIAKLNINTECQLAFAKATREYILANKDQEGKGYDPRKLLAPGTQAITDTFKEISGWMGTRPVKMVPEEIK
# modifications: Fructose tagatose bisphosphate aldolase
# notes: as for B1
# B4: 2,3-bisphosphoglycerate-dependent phosphoglycerate mutase (protein, listed as Lactobacillus camelliae)
# chain: MAKLVLIRHGQSEWNLSNQFTGWVDVDLSEKGTEEAKEAGRRIKKAGLEFDQAYTSVLTRAIKTLHYALEESDQLWIPETKTWRLNERHYGALQGQNKAEAAKKWGDEQVHIWRRSYDTLPPLLSADDEGSAAKDRRYANLDPRIIPGGENLKVTLERVIPFWEDHIAPDLLDGKNVIIAAHGNSLRALTKYIENISDEDIINLEMTTGEPVVYTFNDKLEVTDKVKLSK
# modifications: 2,3-bisphosphoglycerate-dependent phosphoglycerate mutase
# notes: as for B1
# How the values were obtained:
# human OT-R = target: T1, human OT-R; assay: Activation of OT-R by bacterial peptides: calcium release from HEK cells transfected with human OT-R; assay type: cell-based; conditions: for specific activation of OTR: OTR expressing HEK cells; for Emax: mean ± standard error, maximal amplitude of Ca2+ release, HEK cells expressing human OT-R; for activation of the oxytocin receptor: statement in the description, micromolar scale
# anti-oxytocin antibodies = assay: Proteomic analysis: 2D gel and OT immunodetection (OT IgG) of bacterial proteomes; assay type: binding
# Description: In this study, 14 bacteria-extracted proteomes were analyzed: (i) from 5 Bifidobacterium species grown in anaerobe conditions, (ii) from 5 Lactobacillus species grown in anaerobe culture conditions and (iii) from 4 aerotolerant Lactobacillus species grown in aerobe conditions. Each proteome analysis was performed in triplicate and was further separated in 3 fractions i.e. soluble (S), membrane (M), and residual (R) resulting in 9 samples/proteome). Each fraction was initially screened by western blot (WB) for the presence OT-like reactivity to validate it for further 2D-SDS-PAGE analysis. […] Finally, all fractions have been analyzed using 2D gel technique and OT immunodetection. 2D gel electrophoresis allowed to improve visibility of the less abundant proteins in a complex sample. Thereby, all samples were analyzed at least once with this method to scan optimally each proteome in the search for OT mimicry. […] The specificity for OT-like staining was controlled by pre-adsorption of OT-IgG with OT peptide.
# All protein spots in silver nitrate staining gels corresponding to OT-like spots in the membrane were excised and analyzed by mass spectrometry
# human oxytocin receptor = human oxytocin receptor (human, UniProt P30559); assay: cell-based or functional assay
# [1] = 2D-immunoblotting, spots identified by mass spectrometry
molecule,measurement,setting,value
CSCC[C@H](NC(=O)[C@@H]1CCCN1C(=O)CNC(=O)[C@H](CC(N)=O)NC(=O)[C@H](Cc1c[nH]c2ccccc12)NC(=O)[C@@H](NC(=O)[C@@H](NC(=O)[C@@H](NC(=O)[C@@H](N)CCCCN)[C@@H](C)O)C(C)C)C(C)C)C(=O)NCC(=O)O [Peptide 3],specific activation of OTR,human OT-R,specifically activated OTR
same,Emax,human OT-R,302 ± 35.41
same,activation of the oxytocin receptor,human OT-R,strongly activate the oxytocin receptor at a micromolar scale
CC[C@H](C)[C@H](NC(=O)[C@H](Cc1ccc(O)cc1)NC(=O)[C@@H](N)CC(=O)O)C(=O)N[C@@H](CCCCN)C(=O)N[C@@H](CC(N)=O)C(=O)N[C@@H](CCSC)C(=O)N[C@H](C(=O)N[C@H](C(=O)NCC(=O)O)[C@@H](C)O)[C@@H](C)CC [Peptide 8],specific activation of OTR,human OT-R,specifically activated OTR
same,Emax,human OT-R,140 ± 71.48
same,activation of the oxytocin receptor,human OT-R,strongly activate the oxytocin receptor at a micromolar scale
Elongation factor Tu [SEQ ID NO:14],immune cross-reaction with anti-oxytocin antibodies,anti-oxytocin antibodies; [1],immune cross-react with anti-oxytocin antibodies
Elongation factor Tu [SEQ ID NO:17],immune cross-reaction with anti-oxytocin antibodies,anti-oxytocin antibodies; [1],immune cross-react with anti-oxytocin antibodies
Enolase 2 [SEQ ID NO:8],immune cross-reaction with anti-oxytocin antibodies,anti-oxytocin antibodies; [1],immune cross-react with anti-oxytocin antibodies
Glucose-6-phosphate isomerase [SEQ ID NO:18],immune cross-reaction with anti-oxytocin antibodies,anti-oxytocin antibodies,immune cross-react with anti-oxytocin antibodies
H-ATSKNCPIA-OH [Peptide 4],specific activation of OTR,human OT-R,specifically activated OTR
same,Emax,human OT-R,304.6 ± 29.70
H-DFVKNMITG-OH [Peptide 17],Emax,human OT-R,135.3 ± 8.92
H-DYVKNMITG-OH [Peptide 1],specific activation of OTR,human OT-R,specifically activated OTR
same,most efficient OT-like peptides,human OT-R; judged by EC50 and maximal amplitude of Ca2+ release,most efficient
same,Emax,human OT-R,273.8 ± 35.03
same,activation of the oxytocin receptor,human OT-R,strongly activate the oxytocin receptor at a micromolar scale
H-KFVNDNELG-OH [Peptide 2],specific activation of OTR,human OT-R,specifically activated OTR
same,Emax,human OT-R,164.8 ± 107.9
same,activation of the oxytocin receptor,human OT-R,strongly activate the oxytocin receptor at a micromolar scale
H-KQFVHENELG-OH [Peptide 7],specific activation of OTR,human OT-R,specifically activated OTR
same,Emax,human OT-R,262.8 ± 35.64
H-KYIENISDE-OH [Peptide 14],specific activation of OTR,human OT-R,specifically activated OTR
same,Emax,human OT-R,221.5 ± 10.40
H-LTITNVPNS-OH [Peptide 5],specific activation of OTR,human OT-R,specifically activated OTR
same,Emax,human OT-R,272 ± 99.09
"H-QYIQEGR-OH [Peptide 6, H-QYIQEGR-OH]",specific activation of OTR,human OT-R,specifically activated OTR
same,Emax,human OT-R,99.42 ± 6.77
same,activation of the oxytocin receptor,human OT-R,strongly activate the oxytocin receptor at a micromolar scale
"H-SYFYNKEDG-OH [Peptide 10, LG]",activation of the oxytocin receptor,human OT-R,strongly activate the oxytocin receptor at a micromolar scale
"H-VDIQEFMIMPVG-OH [Peptide 9, Enolase 2 fragment 160-171; LG]",activation of the oxytocin receptor,human OT-R,strongly activate the oxytocin receptor at a micromolar scale
"H-CYFEDAGA-OH [OT-like peptide #13, Triosephosphate isomerase 61-68, H-CYFEDAGA-OH]",Emax of calcium release,human oxytocin receptor,17.9
B1,immune cross-reaction with anti-oxytocin antibodies,anti-oxytocin antibodies; [1],immune cross-react with anti-oxytocin antibodies
H-LTITNVPNS-OH,EC50 of calcium release,human oxytocin receptor,2.7 µM
same,Emax of calcium release,human oxytocin receptor,272
"H-AYSPLGTGK-OH [OT-like peptide #12, 2,5-didehydrogluconate reductase 202-210, H-AYSPLGTGK-OH]",Emax of calcium release,human oxytocin receptor,5.25
"H-GFDRDCPVV-OH [OT-like peptide #16, Elongation factor Tu 164-172, H-GFDRDCPVV-OH]",Emax of calcium release,human oxytocin receptor,2.13
"H-KQFVHENELG-OH [OT-like peptide #7, Glucose-6-phosphate isomerase 12-21, H-KQFVHENELG-OH]",EC50 of calcium release,human oxytocin receptor,2.57 µM
same,Emax of calcium release,human oxytocin receptor,263
"H-DYIKNMITG-OH [OT-like peptide #8, Elongation factor Tu 88-96, H-DYIKNMITG-OH]",Emax of calcium release,human oxytocin receptor,140
"H-QYIQEGR-OH [OT-like peptide #6, Glucose-6-phosphate isomerase 313-319, H-QYIQEGR-OH]",EC50 of calcium release,human oxytocin receptor,3.79 µM
same,Emax of calcium release,human oxytocin receptor,99.4
"H-IYLRSNPLMK-OH [OT-like peptide #15, Probable phosphoketolase 40-49, H-IYLRSNPLMK-OH]",Emax of calcium release,human oxytocin receptor,5.36
"H-ATSKNCPIA-OH [OT-like peptide #4, GMP synthase [glutamine-hydrolyzing] 154-162, H-ATSKNCPIA-OH]",EC50 of calcium release,human oxytocin receptor,3.09 µM
same,Emax of calcium release,human oxytocin receptor,305
B2,immune cross-reaction with anti-oxytocin antibodies,anti-oxytocin antibodies; [1],immune cross-react with anti-oxytocin antibodies
"H-MFQAARKG-OH [OT-like peptide #11, Fructose tagatose bisphosphate aldolase 1-8, H-MFQAARKG-OH]",Emax of calcium release,human oxytocin receptor,4.65
B3,immune cross-reaction with anti-oxytocin antibodies,anti-oxytocin antibodies; [1],immune cross-react with anti-oxytocin antibodies
"H-KFVNDNELG-OH [OT-like peptide #2, Glucose-6-phosphate isomerase 13-21, H-KFVNDNELG-OH]",EC50 of calcium release,human oxytocin receptor,3.21 µM
same,Emax of calcium release,human oxytocin receptor,165
"H-VDIQEFMIMPVG-OH [OT-like peptide #9, Enolase 2 160-171, H-[…]-OH]",Emax of calcium release,human oxytocin receptor,119
"H-SYFYNKEDG-OH [OT-like peptide #10, Enolase 246-254, H-SYFYNKEDG-OH]",Emax of calcium release,human oxytocin receptor,41.6
"H-KTVVWNGPMG-OH [OT-like peptide #3, Phosphoglycerate kinase 317-326, H-KTVVWNGPMG-OH]",Emax of calcium release,human oxytocin receptor,302
"H-DFVKNMITG-OH [OT-like peptide #17, Elongation factor Tu 89-97, H-DFVKNMITG-OH]",EC50 of calcium release,human oxytocin receptor,7.52 µM
same,Emax of calcium release,human oxytocin receptor,135
H-KYIENISDE-OH,EC50 of calcium release,human oxytocin receptor,8.93 µM
same,Emax of calcium release,human oxytocin receptor,222
B4,immune cross-reaction with anti-oxytocin antibodies,anti-oxytocin antibodies; [1],immune cross-react with anti-oxytocin antibodies
"H-DYVKNMITG-OH [OT-like peptide #1, Elongation factor Tu 87-95, H-DYVKNMITG-OH]",EC50 of calcium release,human oxytocin receptor,2.77 µM
same,Emax of calcium release,human oxytocin receptor,274
